Laboratory results published in patent US8227212B2, “Cell that expresses a sulfatase and a formylglycine generating enzyme” (Shire Human Genetic Therapies, Inc., priority 2003, dated 2012).

Legend:
ARSA, ARSC and ARSE = experiment: Co-expression of FGE (SUMF1) and sulfatase cDNAs in cell lines, sulfatase activities; type: cell-based, human; details: co-transfection with ARSA, ARSC and ARSE cDNAs in various cell lines
Text: To test the effect of FGE (SUMF1) on additional sulfatase activities in normal cells we overexpressed ARSA (SEQ ID NO:14), ARSC (SEQ ID NO:18) and ARSE (SEQ ID NO:22) cDNAs in various cell lines with and without co-transfection of the FGE (SUMF1) cDNA and measured sulfatase activities.
To test for functional conservation of the FGE (SUMF1) gene during evolution we overexpressed ARSA, ARSC and ARSE cDNAs in various cell lines with and without co-transfection of the […] and measured sulfatase activities.

[1] = Biodistribution study of IV FGE-activated GALNS in ICR (normal) mice; type: in vivo; details: single IV injection of 5 mg/kg, two hours after injection
Protocol: Four-week-old ICR (normal) mice were given a single IV injection of 5 mg/kg FGE-activated GALNS. Liver, femur (bone), heart, kidney and spleen were collected two hours after injection and prepared for histological examination. A monoclonal anti-human GALNS antibody was used to detect the presence of injected GALNS in the various tissues. […] Moreover, GALNS was readily observed in all tissues examined using a horseradish-peroxidase reporter system, […].

MKI mice = experiment: Pharmacodynamic study in MKI mice (GALNS deficient, Morquio Knock-In); type: in vivo; details: weekly IV 2 mg/kg over 16 weeks
Text: The primary cause of skeletal pathology in Morquio patients is keratan sulfate (KS) accumulation in epiphyseal disk (growth plate) chondrocytes due to deficiency of the lysosomal sulfatase, GALNS. The primary objective of in vivo research studies was to determine whether intravenously (IV) administered FGE-activated GALNS was able to penetrate chondrocytes of the growth plate as well as other appropriate cell types in normal mice.
Four-week-old MKI or wild-type mice were given weekly IV injections (n=8 per group) through 20 weeks of age. Each weekly injection consisted of either 2 mg/kg FGE-activated GALNS or vehicle control (no injection for wild-type mice). All mice were sacrificed for histological examination at 20 weeks of age and stained using the following methods: hematoxylin and eosin for cellular morphology, alcian blue for detection of GAGs.

B1: murine FGE (SUMF1): murine FGE (SUMF1) gene, mouse FGE ortholog (SEQ ID NO:49) (nucleic acid, listed as Mus musculus)
DNA: ATGGTCCCCATTCCTGCTGGAGTATTCACAATGGGCACTGATGATCCTCAGATCAGGCAGGATGGAGAAGCCCCTGCCAGGAGAGTCACTGTTGATGGCTTTTACATGGACGCCTATGAAGTCAGCAATGCGGATTTTGAGAAGTTTGTGAACTCGACTGGCTATTTGACAGAGGCTGAGAAGTTTGGAGACTCTTTCGTCTTTGAAGGCATGTTGAGCGAGCAAGTGAAAACGCATATCCACCAGGCAGTTGCAGCTGCTCCATGGTGGTTGCCTGTCAAGGGAGCTAATTGGAGACACCCAGAGGGTCCGGACTCCAGTATTCTGCACAGGTCAAATCATCCGGTTCTCCATGTTTCCTGGAACGATGCTGTTGCCTACTGCACATGGGCGGGCAAGAGGTTGCCTACTGAGGCAGAGTGGGAATACAGCTGTAGAGGAGGCCTGCAGAACAGGCTTTTCCCCTGGGGCAACAAACTGCAGCCCAAAGGACAGCATTATGCCAACATCTGGCAGGGCAAGTTTCCTGTGAGCAACACTGGCGAGGATGGCTTCCAAGGAACTGCCCCCGTTGATGCCTTTCCTCCCAATGGCTATGGCTTATACAACATAGTGGGGAATGTGTGGGAGTGGACCTCAGACTGGTGGACTGTTCACCATTCTGTTGAGGAAACGTTCAACCCAAAGGGTCCCACTTCTGGGAAAGACCGAGTGAAGAAGGGTGGATCCTACATGTGCCATAAGTCCTATTGCTATAGGTACCGCTGTGCAGCTCGAAGCCAGAACACACCAGATAGCTCTGCATCCAACCTGGGATTCCGATGTGCAGCCGACCACCTGCCCACCGCAGACTGA
activity of FGE homologs on overexpressed human sulfatases (ARSA, ARSC and ARSE): active on all three human sulfatases

B2: FGE-activated GALNS: N-Acetylgalactosamine 6-Sulfatase (lysosomal sulfatase) activated by FGE, for enzyme replacement therapy of Morquio disease MPS IVA (protein)
chain: APQPPNILLLLMDDMGWGDLGVYGEPSRETPNLDRMAAEGLLFPNFYSANPLCSPSRAALLTGRLPIRNGFYTTNAHARNAYTPQEIVGGIPDSEQLLPELLKKAGYVSKIVGKWHLGHRPQFHPLKHGFDEWFGSPNCHFGPYDNKARPNIPVYRDWEMVGRYYEEFPINLKTGEANLTQIYLQEALDFIKRQARHHPFFLYWAVDATHAPVYASKPFLGTSQRGRYGDAVREIDDSIGKILELLQDLHVADNTFVFFTSDNGAALISAPEQGGSNGPFLCGKQTTFEGGMREPALAWWPGHVTAGQVSHQLGSIMDLFTTSLALAGLTPPSDRAIDGLNLLPTLLQGRLMDRPIFYYRGDTLMAATLGQHKAHFWTWTNSWENFRQGIDFCPGQNVSGVTTHNLEDHTKLPLIFHLGRDPGERFPLSFASAEYQEALSRITSVVQQHQEALVPAQPQLNVCNWAVMNWAPPGCEKLGKCLTPPESIPKKCLWSH
GALNS delivery to bone growth plate chondrocytes (FITC reporter system) [1]: observed in all growth plate sections examined
presence of injected GALNS in tissues (monoclonal anti-human GALNS antibody) ([1]; liver, femur (bone), heart, kidney and spleen): detected in all tissues examined
chondrocytes in the calcification zone of the growth plate (MKI mice): reduction of vacuolization
vacuolized chondrocytes of the hypertrophic and proliferating zones of the growth plate (MKI mice): unaffected
clearance of accumulated GAG (alcian blue staining) (MKI mice; soft tissues (liver, heart, kidney and spleen)): reduced or absent alcian blue staining

B3: Drosophila FGE (SUMF1): Drosophila FGE (SUMF1) gene, fruitfly FGE ortholog (SEQ ID NO:51) (nucleic acid)
DNA: ATGACAACAATTATATTAGTCCTCTTTATTTGGATAGTTTTATTCAATGACGTATCCAGCGACTGTGGCTGCCAAAAGCTCGACCGGAAGGCCCCGGATATGCCGTCCATTTCCGGACAAGTGTGCCAGCAACGAGCACAGGGTGCACACAGCCACTACCGGGATTACTATGGCGAACTGGAGCCAAATATTGCGGACATGTCACTGCTTCCGGGAGGCACGGTTTACATGGGTACTGACAAACCGCACTTTCCGGCCGACCGCGAGGCTCCGGAACGGCAGGTGAAGCTGAATGACTTCTACATCGACAAGTATGAGGTTTCCAACGAAGCCTTTGCGAAGTTTGTTCTGCACACTAACTACACCACGGAGGCTGAGCGATATGGCGACAGTTTTCTGTTTAAGAGCCTTTTGAGCCCATTGGAGCAGAAGAACCTAGAGGACTTCCGAGTGGCGAGCGCTGTCTGGTGGTACAAAGTGGCCGGCGTGAACTGGCGACATCCAAATGGCGTGGACAGCGATATAGACCACTTAGGCCGACACCCGGTAGTGCACGTATCGTGGCGCGACGCTGTGGAGTACTGTAAGTGGGCCGGCAAGCGGTTGCCCAGCGAGGCGGAGTGGGAGGCGGCTTGCAGGGGCGGCAAGGAGCGCAAACTGTTTCCCTGGGGCAACAAGCTGATGCCAAGGAATGAACATTGGCTGAACATCTGGCAGGGAGACTTTCCCGATGGCAACCTGGCTGAAGATGGGTTTGAGTACACCAGCCCCGTGGATGCCTTCCGACAGAATATTTACGACCTGCACAACATGGTGGGCAACGTCTGGGAGTGGACGGCAGATCTGTGGGACGTAAATGACGTTAGCGATAATCCAAATCGGGTCAAGAAGGGCGGTTCTTATCTGTGTCACAAGTCCTACTGCTACAGGTACAGGTGCGCGGCACGCTCGCAGAACACAGAAGACAGTTCAGCCGGTAACCTGGGTTTTCGGTGCGCCAAGAATGCGTGA
modifications: Drosophila melanogaster
activity of FGE homologs on overexpressed human sulfatases (ARSA, ARSC and ARSE): less efficient
